Consider one molecule from PMC3273627 (Journal of Molecular Biology, 2011).

The target in this test is actin filaments (UniProt P68135 1-377). Kind of test: co-sedimentation.

B1: Dys ΔH2-R19 (other)
chain: MLWWEEVEDCYEREDVQKKTFTKWINAQFSKFGKQHIDNLFSDLQDGKRLLDLLEGLTGQKLPKEKGSTRVHALNNVNKALRVLQKNNVDLVNIGSTDIVDGNHKLTLGLIWNIILHWQVKNVMKTIMAGLQQTNSEKILLSWVRQSTRNYPQVNVINFTSSWSDGLALNALIHSHRPDLFDWNSVVSQHSATQRLEHAFNIAKCQLGIEKLLDPEDVATTYPDKKSILMYITSLFQVLPQQVSIEAIQEVEMLPRTSSKVTREEHFQLHHQMHYSQQITVSLAQGYEQTSSSPKPRFKSYAFTQAAYVATSDSTQSPYPSQHLEAPRDKSLDSSLMETEVNLDSYQTALEEVLSWLLSAEDTLRAQGEISNDVEEVKEQFHAHEGFMMDLTSHQGLVGNVLQLGSQLVGKGKLSEDEEAEVQEQMNLLNSRWECLRVASMEKQSKLHKVLMDLQNQKLKELDDWLTKTEERTKKMEEEPFGPDLEDLKCQVQQHKVLQEDLEQEQVRVNSLTHMVVVVDESSGDHATAALEEQLKVLGDRWANICRWTEDRWIVLQDILLKWQHFTEEQCLFSTWLSEKEDAMKNIQTSGFKDQNEMMSSLHKISTLKIDLEKKKPTMEKLSSLNQDLLSALKNKSVTQKMEIWMENFAQRWDNLTQKLEKSSAQISQPDRAPGLSTTGASASQTVTLVTQSVVTKETVISKLEMPSSLLLEVPALADFNRAWTELTDWLSLLDRVIKSQRVMVGDLEDINEMIIKQKATLQDLEQRRPQLEELITAAQNLKNKTSNQEARTIITDRIERIQIQWDEVQEQLQNRRQQLNEMLKDSTQWLEAKEEAEQVIGQVRGKLDSWKEGPHTVDAIQKKITETKQLAKDLRQRQISVDVANDLALKLLRDYSADDTRKVHMITENINTSWGNIHKRVSEQEAALEETHRLLQQFPLDLEKFLSWITEAETTANVLQDASRKEKLLEDSRGVRELMKPWQDLQGEIETHTDIYHNLDENGQKILRSLEGSDEAPLLQRRLDNMNFKWSELQKKSLNIRSHLEASSDQWKRLHLSLQELLVWLQLKDDELSRQAPIGGDFPAVQKQNDIHRAFKRELKTKEPVIMSTLETVRIFLTEQPLEGLEKLYQEPRELPPEERAQNVTRLLRKQAEEVNAEWDKLNLRSADWQRKIDEALERLQELQEAADELDLKLRQAEVIKGSWQPVGDLLIDSLQDHLEKVKALRGEIAPLKENVNRVNDLAHQLTTLGIQLSPYNLSTLEDLNTRWRLLQVAVEDRVRQLHEAHRDFGPASQHFLSTSVQGPWERAISPNKVPYYINHETQTTCWDHPKMTELYQSLADLNNVRFSAYRTAMKLRRLQKALCLDLLSLSAACDALDQHNLKQNDQPMDILQIINCLTTIYDRLEQEHNNLVNVPLCVDMCLNWLLNVYDTGRTGRIRVLSFKTGIISLCKAHLEDKYRYLFKQVASSTGFCDQRRLGLLLHDSIQIPRQLGEVASFGGSNIEPSVRSCFQFANNKPEIEAALFLDWMRLEPQSMVWLPVLHRVAAAETAKHQAKCNICKECPIIGFRYRSLKHFNYDICQSCFFSGRVAKGHKMHYPMVEYCTPTTSGEDVRDFAKVLKNKFRTKRYFAKHPRMGYLPVQTVLEGDNMETPVTLINFWPVDSAPASSPQLSHDDTHSRIEHYASRLAEMENSNGSYLNDSISPNESIDDEHLLIQHYCQSLNQDSPLSQPRSPAQILISLESEERGELERILADLEEENRNLQAEYDRLKQQHEHKGLSPLPSPPEMMPTSPQSPRDAELIAEAKLLRQHKGRLEARMQILEDHNKQLESQLHRLRQLLEQPQAEAKVNGTTVSSPSTSLQRSDSSQPMLLRVVGSQTSESMGEEDLLSPPQDTSTGLEEVMEQLNNSFPSSRGRNAPGKPMREDTM
Usually Kd stands for the constant that tells how readily two partners part at equilibrium. A higher Kd goes with weaker binding. As to B1, binding was put at a Kd of 3.53 µM.
